# Data: the supplement of paper PMC10126150
# ± gives the standard deviation of the averaged measurements.
# System: ATP
# Test: switch fluorescence ratio, 500 uM ATP over buffer (Cy3 cluster intensity, sum of 5 cycles each) (fold (ratio)); higher = stronger signal-on switching upon ATP binding; sequences stand for … in TCGTCGGCAGCGTCAGATGTGTATAAGAGACAGTTTTTTTTTTTTTTTTTTTTTTTTT…TC
# Settings: aptamer strand: ATP DNA aptamer (quencher-CACCTGGGGGAGTATTGCGGAGGAAGG + anchor), 100 nM annealed; ATP concentration: 500 uM
# How it was run: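 Values give the fluorescence ratio for each switch-domain sequence, averaged from per-cluster ratios of summed target-cycle to summed buffer-cycle Cy3 intensity. The Cy3-labelled switching-strand clusters sat on a modified Illumina MiSeq flow-cell, were annealed to 100 nM quencher-labelled ATP aptamer, and were imaged in selection buffer, then after 15 min with 500 uM ATP at 22 °C. Five cycles ran with NaOH stripping and re-annealing between them, and clusters outside 100-1000 RFU were excluded.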
# 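Further: ATP exposure 15 min at 22 °C before imaging.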
row,Sequence,switch fluorescence ratio
1,AGATTTGTGT,0.959 ± 0.024
2,AGATTTGTTG,0.978 ± 0.034
3,AGATTTTCCT,1.19 ± 0.35
4,AGATTTTGGT,0.9954 ± 0.0026
5,AGATTTTGTC,0.972 ± 0.011
6,AGATTTTGTT,0.975 ± 0.017
7,AGCAAAACGT,1.17 ± 0.19
8,AGCAAACGGG,1.26 ± 0.015
9,AGCAAAGTA,0.9748 ± 0.0062
10,AGCAAATATA,1.058 ± 0.0057
11,AGCAACGTTC,1.07 ± 0.081
12,AGCAAGGGGC,1.02 ± 0.023
13,AGCAAGTCAG,1.07 ± 0.013
14,AGCAATCGTT,1.54 ± 0.071
15,AGCAATTGGT,1.062 ± 0.0086
16,AGCACAAAAA,1.12 ± 0.096
17,AGCACGGGTT,1.21 ± 0.3
18,AGCAGAAATT,1.02 ± 0.054
19,AGCAGCGGGC,0.997 ± 0.043
20,AGCAGGGACT,1.051 ± 0.0077
21,AGCAGGGCGG,0.983 ± 0.011
22,AGCAGGGCTT,1.04 ± 0.05
23,AGCAGGTGGG,1.05 ± 0.076
24,AGCAGTTTAC,1.17 ± 0.054
25,AGCATAAGC,1.04 ± 0.012

row,Sequence,switch fluorescence ratio
1,AGCATGTCGT,1.01 ± 0.015
2,AGCATTGGCT,1.016 ± 0.0011
3,AGCCACATGG,0.98 ± 0.031
4,AGCCACGCGT,1.01 ± 0.012
5,AGCCAGCTGC,0.9924 ± 0.0095
6,AGCCAGGATG,1.104 ± 0.0047
7,AGCCCGGAAA,1.023 ± 0.0038
8,AGCCGTTTCG,0.999 ± 0.017
9,AGCCTAAGAT,0.963 ± 0.012
10,AGCCTACGGG,1.0466 ± 0.00084
11,AGCCTATTGT,0.972 ± 0.035
12,AGCCTGCCCG,1.05 ± 0.037
13,AGCCTTTCGT,1.01 ± 0.054
14,AGCGAATATT,1.08 ± 0.098
15,AGCGAGAGAC,1.102 ± 0.0025
16,AGCGAGCGAA,1.01 ± 0.014
17,AGCGAGGGAG,1.005 ± 0.0059
18,AGCGAGGTCG,1 ± 0.031
19,AGCGCAAAAT,1.02 ± 0.069
20,AGCGCAGTTT,0.999 ± 0.021
21,AGCGCATTGT,1.02 ± 0.031
22,AGCGCGATTC,1.99 ± 0.13
23,AGCGCTGGGA,1 ± 0.05
24,AGCGGAAGGC,1.04 ± 0.024
25,AGCGGAGGGG,1.04 ± 0.033

row,Sequence,switch fluorescence ratio
1,AGCGGGGCGC,1.01 ± 0.069
2,AGCGGGGGTG,1.02 ± 0.018
3,AGCGGGTAGG,1.02 ± 0.013
4,AGCGGGTTG,1.02 ± 0.017
5,AGCGGTCCTC,1.09 ± 0.039
6,AGCGGTGGGA,1.02 ± 0.032
7,AGCGGTTTCC,1.029 ± 0.0093
8,AGCGTCTCCG,1.024 ± 0.006
9,AGCGTCTGTG,0.962 ± 0.036
10,AGCGTTAGAG,1.09 ± 0.017
11,AGCGTTCTTA,1.02 ± 0.041
12,AGCTACCTTC,1.42 ± 0.041
13,AGCTAGAGTC,1.03 ± 0.028
14,AGCTAGCCTT,1.02 ± 0.028
15,AGCTAGGGGG,0.989 ± 0.022
16,AGCTATAGTA,0.991 ± 0.01
17,AGCTATGGGA,1.04 ± 0.015
18,AGCTATGTTA,1.03 ± 0.0045
19,AGCTATTCCG,1.01 ± 0.013
20,AGCTCCGACA,1.63 ± 0.058
21,AGCTCGCGTC,0.981 ± 0.021
22,AGCTCGGCGC,1.02 ± 0.064
23,AGCTGAACGG,1.05 ± 0.025
24,AGCTGAGTAG,0.997 ± 0.035
25,AGCTGAGTCT,1.02 ± 0.034

row,Sequence,switch fluorescence ratio
1,AGCTGATAGG,0.991 ± 0.032
2,AGCTGATGG,1.0343 ± 0.00071
3,AGCTGCTTGC,1.04 ± 0.066
4,AGCTGGTGGA,1.02 ± 0.024
5,AGCTTATTGC,0.977 ± 0.015
6,AGCTTGGGTT,0.98 ± 0.018
7,AGCTTGTGAA,1.01 ± 0.011
8,AGCTTTAAAA,0.981 ± 0.025
9,AGCTTTGGGA,0.995 ± 0.085
10,AGCTTTTTTA,1.02 ± 0.015
11,AGGAAAACAG,1.026 ± 0.0032
12,AGGAAAGTAG,0.9719 ± 0.0097
13,AGGAAGACAA,1.03 ± 0.028
14,AGGAAGCGGG,1.0224 ± 0.00031
15,AGGAAGTCTT,0.941 ± 0.021
16,AGGAAGTTGC,0.9883 ± 0.0085
17,AGGAATAAGC,1.01 ± 0.012
18,AGGAATCGGG,0.993 ± 0.047
19,AGGACAAATC,0.985 ± 0.026
20,AGGACCAGCA,1.024 ± 0.0075
21,AGGACGATGG,1.1 ± 0.16
22,AGGACTCGGG,1.04 ± 0.068
23,AGGAGAATCT,1 ± 0.025
24,AGGAGAGCTT,1.02 ± 0.012
25,AGGAGAGGGA,0.995 ± 0.038

row,Sequence,switch fluorescence ratio
1,AGGAGATAAA,0.983 ± 0.015
2,AGGAGCAGCG,0.919 ± 0.03
3,AGGAGCAGGG,1 ± 0.05
4,AGGAGCGCGG,1.027 ± 0.003
5,AGGAGCGGCA,1.018 ± 0.0095
6,AGGAGCTGAA,0.987 ± 0.021
7,AGGAGCTTTC,1.08 ± 0.039
8,AGGAGGAGTA,0.968 ± 0.019
9,AGGAGGATGT,0.98 ± 0.01
10,AGGAGGCATT,1.02 ± 0.02
11,AGGAGGGAAC,0.9916 ± 0.0016
12,AGGAGGGATA,1.04 ± 0.015
13,AGGAGGGCTG,0.984 ± 0.011
14,AGGAGGGGAT,1.02 ± 0.045
15,AGGAGGGGG,0.989 ± 0.049
16,AGGAGGGGTC,1.01 ± 0.048
17,AGGAGGGTTT,0.999 ± 0.032
18,AGGAGGTTGG,0.998 ± 0.017
19,AGGAGTAATC,1.04 ± 0.072
20,AGGAGTAATT,1.01 ± 0.024
21,AGGAGTATGG,1.02 ± 0.015
22,AGGAGTCGTT,1.02 ± 0.044
23,AGGAGTGGCG,0.97841 ± 0.00086
24,AGGAGTTTTT,0.98 ± 0.03
25,AGGATAAAGG,1.03 ± 0.036

row,Sequence,switch fluorescence ratio
1,AGGATACTTT,0.9793 ± 0.0038
2,AGGATATATT,0.976 ± 0.0099
3,AGGATCGGCG,0.9769 ± 0.0046
4,AGGATGGTAT,1.003 ± 0.01
5,AGGATTAGCT,0.999 ± 0.042
6,AGGATTGGGG,1 ± 0.043
7,AGGCAAGGGG,1.04 ± 0.069
8,AGGCAATGTC,1.48 ± 0.17
9,AGGCAATGTT,1.05 ± 0.013
10,AGGCACGCTG,1.02 ± 0.014
11,AGGCACGTCG,1.021 ± 0.009
12,AGGCAGAACG,1.048 ± 0.0058
13,AGGCAGGCGG,1.01 ± 0.073
14,AGGCAGTGTC,1.04 ± 0.05
15,AGGCAGTTTC,0.988 ± 0.049
16,AGGCATATGG,0.993 ± 0.057
17,AGGCATGATG,1.0051 ± 0.00033
18,AGGCCCTAGG,1.046 ± 0.0036
19,AGGCCGAGGA,0.991 ± 0.018
20,AGGCCGGAAT,1.27 ± 0.46
21,AGGCCGTATT,1 ± 0.029
22,AGGCCGTCCT,1.02 ± 0.1
23,AGGCCGTCGT,1.043 ± 0.0064
24,AGGCCTCGGG,1.022 ± 0.0054
25,AGGCCTGCGG,1.05 ± 0.033

row,Sequence,switch fluorescence ratio
1,AGGCGAAGCA,0.9923 ± 0.0092
2,AGGCGACATT,0.9819 ± 0.0056
3,AGGCGCAAGC,1.07 ± 0.048
4,AGGCGCCTGG,0.964 ± 0.04
5,AGGCGGAACT,1.02 ± 0.026
6,AGGCGGAGTT,0.97011 ± 0.00078
7,AGGCGGCCGT,0.9889 ± 0.0082
8,AGGCGGGACA,1.025 ± 0.0082
9,AGGCGGGGCT,0.97301 ± 0.00064
10,AGGCGGGGTT,1.01 ± 0.026
11,AGGCGGTAGC,1.02 ± 0.0037
12,AGGCGTTGAG,0.976 ± 0.018
13,AGGCTAAAGG,1 ± 0.026
14,AGGCTATGTA,0.9998 ± 0.0042
15,AGGCTGGCTA,1 ± 0.019
16,AGGCTTAAGA,0.976 ± 0.031
17,AGGCTTAATC,0.9903 ± 0.0069
18,AGGCTTACTC,1.39 ± 0.028
19,AGGCTTAGG,0.957 ± 0.0032
20,AGGCTTGCCA,0.9991 ± 0.0016
21,AGGCTTGTGC,1.01 ± 0.081
22,AGGCTTTGCA,0.992 ± 0.01
23,AGGGAAAGGA,0.9889 ± 0.0085
24,AGGGAAAGTG,0.971 ± 0.02
25,AGGGAACGGG,1.01 ± 0.055

row,Sequence,switch fluorescence ratio
1,AGGGAATGTA,0.99 ± 0.016
2,AGGGAATTTG,1.014 ± 0.0021
3,AGGGACGCGA,1.26 ± 0.037
4,AGGGAGAATT,1 ± 0.013
5,AGGGAGCGGT,1.026 ± 0.0063
6,AGGGAGCTGT,1.023 ± 0.0015
7,AGGGAGGAGT,0.988 ± 0.026
8,AGGGAGGATT,0.965 ± 0.034
9,AGGGAGGCAG,1 ± 0.033
10,AGGGAGTCTC,0.98 ± 0.031
11,AGGGAGTCTT,0.971 ± 0.052
12,AGGGATAAAG,1.01 ± 0.023
13,AGGGATAGCT,0.967 ± 0.006
14,AGGGATCCTA,0.978 ± 0.012
15,AGGGATCGGT,0.979 ± 0.025
16,AGGGATGAGA,0.9965 ± 0.0024
17,AGGGCAAAAG,1.03 ± 0.006
18,AGGGCAATGG,1.29 ± 0.38
19,AGGGCAATGT,1.11 ± 0.032
20,AGGGCACATA,1.0764 ± 9.5e-05
21,AGGGCACGGG,0.982 ± 0.023
22,AGGGCAGGAC,1.41 ± 0.024
23,AGGGCAGGG,0.975 ± 0.065
24,AGGGCAGGGA,0.993 ± 0.017
25,AGGGCAGGTG,2.65 ± 0.13
